We go through 1 substance from US20200071671A1.

The assay has as its target hCCNT1-C261Y (human) (UniProt O60563). Description: cell-based or functional assay.
UniProt O60563, sequence (O60563 whole entry C261Y): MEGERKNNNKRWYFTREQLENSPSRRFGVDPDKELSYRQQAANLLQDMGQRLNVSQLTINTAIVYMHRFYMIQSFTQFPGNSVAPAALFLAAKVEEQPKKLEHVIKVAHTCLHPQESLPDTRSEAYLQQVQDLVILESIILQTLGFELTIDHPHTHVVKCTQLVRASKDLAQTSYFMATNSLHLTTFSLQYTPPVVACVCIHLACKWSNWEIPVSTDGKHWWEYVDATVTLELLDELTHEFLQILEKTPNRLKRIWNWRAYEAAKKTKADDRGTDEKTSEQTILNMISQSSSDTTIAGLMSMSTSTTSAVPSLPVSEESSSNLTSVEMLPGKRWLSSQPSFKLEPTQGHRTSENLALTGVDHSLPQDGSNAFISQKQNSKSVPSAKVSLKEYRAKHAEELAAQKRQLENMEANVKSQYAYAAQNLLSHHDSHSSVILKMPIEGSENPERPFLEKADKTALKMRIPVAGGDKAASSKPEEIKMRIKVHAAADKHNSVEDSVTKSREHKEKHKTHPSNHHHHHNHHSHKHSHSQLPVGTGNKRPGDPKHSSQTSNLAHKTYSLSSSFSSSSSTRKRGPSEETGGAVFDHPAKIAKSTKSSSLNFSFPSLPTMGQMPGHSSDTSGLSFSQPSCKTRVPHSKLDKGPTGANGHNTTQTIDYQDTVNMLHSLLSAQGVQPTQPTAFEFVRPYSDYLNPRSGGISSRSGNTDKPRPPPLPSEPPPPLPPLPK

With HIV-1 Tat protein, the fold decrease in Tat-dependent GFP expression, dual-colour single-round HIV-1 reporter virus, hCCNT1-C261Y Jurkat cells against wild-type parental cells is greater than 16 fold.
